{
  "source": "paper PMC12808100",
  "about": "“The non-catalytic DNA polymerase ε subunit is an NPF motif recognition protein” (Nature Communications, 2025)",
  "molecules": {"B1": {"name": "ASPA (protein, UniProt P45381 1-313, looked up)", "Aspartoacylase": "MTSCHIAEEHIQKVAIFGGTHGNELTGVFLVKHWLENGAEIQRTGLEVKPFITNPRAVKKCTRYIDCDLNRIFDLENLGKKMSEDLPYEVRRAQEINHLFGPKDSEDSYDIIFDLHNTTSNMGCTLILEDSRNNFLIQMFHYIKTSLAPLPCYVYLIEHPSLKYATTRSIAKYPVGIEVGPQPQGVLRADILDQMRKMIKHALDFIHHFNEGKEFPPCAIEVYKIIEKVDYPRDENGEIAAIIHPNLQDQDWKPLHPGDPMFLTLDGKTIPLGGDCTVYPVFVNEAAYYEKKEAFAKTTKLTLNAKSIRCCLH"}, "B2": {"name": "SEC14L4 (protein, UniProt Q9UDX3 1-406, looked up)", "SEC14-like protein 4": "MSSRVGDLSPQQQEALARFRENLQDLLPILPNADDYFLLRWLRARNFDLQKSEDMLRRHMEFRKQQDLDNIVTWQPPEVIQLYDSGGLCGYDYEGCPVYFNIIGSLDPKGLLLSASKQDMIRKRIKVCELLLHECELQTQKLGRKIEMALMVFDMEGLSLKHLWKPAVEVYQQFFSILEANYPETLKNLIVIRAPKLFPVAFNLVKSFMSEETRRKIVILGDNWKQELTKFISPDQLPVEFGGTMTDPDGNPKCLTKINYGGEVPKSYYLCEQVRLQYEHTRSVGRGSSLQVENEILFPGCVLRWQFASDGGDIGFGVFLKTKMGEQQSAREMTEVLPSQRYNAHMVPEDGSLTCLQAGVYVLRFDNTYSRMHAKKLSYTVEVLLPDKASEETLQSLKAMRPSPTQ"}, "B3": {"name": "ABT1 (protein, UniProt Q9ULW3 1-272, looked up)", "Activator of basal …": "MEAEESEKAATEQEPLEGTEQTLDAEEEQEESEEAACGSKKRVVPGIVYLGHIPPRFRPLHVRNLLSAYGEVGRVFFQAEDRFVRRKKKAAAAAGGKKRSYTKDYTEGWVEFRDKRIAKRVAASLHNTPMGARRRSPFRYDLWNLKYLHRFTWSHLSEHLAFERQVRRQRLRAEVAQAKRETDFYLQSVERGQRFLAADGDPARPDGSWTFAQRPTEQELRARKAARPGGRERARLATAQDKARSNKGLLARIFGAPPPSESMEGPSLVRDS"}, "B4": {"name": "IVD (protein, UniProt P26440 33-426, looked up)", "Isovaleryl-CoA dehydrogenase, …": "HSLLPVDDAINGLSEEQRQLRQTMAKFLQEHLAPKAQEIDRSNEFKNLREFWKQLGNLGVLGITAPVQYGGSGLGYLEHVLVMEEISRASGAVGLSYGAHSNLCINQLVRNGNEAQKEKYLPKLISGEYIGALAMSEPNAGSDVVSMKLKAEKKGNHYILNGNKFWITNGPDADVLIVYAKTDLAAVPASRGITAFIVEKGMPGFSTSKKLDKLGMRGSNTCELIFEDCKIPAANILGHENKGVYVLMSGLDLERLVLAGGPLGLMQAVLDHTIPYLHVREAFGQKIGHFQLMQGKMADMYTRLMACRQYVYNVAKACDEGHCTAKDCAGVILYSAECATQVALDGIQCFGGNGYINDFPMGRFLRDAKLYEIGAGTSEVRRLVIGRAFNADFH"}},
  "key": {"[1]": {"target": "His6-avi-MBP-tagged POLE2", "assay": "Single-point nHU-MS with recombinant His6-avi-MBP-POLE2 bait, Jurkat extract", "type": "binding, human", "details": "significant apparent affinity of endogenous prey protein for POLE2 bait; single-point nHU-MS; Figure S11", "excerpt": "So far, our study only focused on a few hand-picked NPF motifs and studied them as short synthetic peptides. However, many other proteins may be present in the proteome that could bind to POLE2 and their putative NPF motifs are embedded in their natural structures that can greatly affect their binding properties. To investigate interactions between POLE2 and intact, full length proteins proteome-wide, we used nHU-MS experiments with recombinant His6-avi-MBP-tagged POLE2 as bait and purified His6-avi-MBP as a control. Even though we are aware that this recombinant POLE2 may bind to NPF motifs with a somewhat altered affinity, we assumed that this would affect all NPF motif-mediated interactions equally, allowing an unbiased affinity ranking of all identified partners. Single point nHU measurements were performed at 26 μM POLE2 concentration and the recovered supernatant was measured by label free proteomic MS measurements (Fig. 3A, Supplementary Figs. 8A, 9, Supplementary Data 1).\nSingle-point nHU experiments with protein baits were carried out nearly identically with two key modifications. First, the resin saturation step was carried out by mixing 50 μl streptavidin resin with 0.5−1 ml 50 μM biotinylated protein solution and the mixture was incubated for 1.5 h at 4 °C with constant agitation. Second, instead of using estimated bait concentrations, we measured it experimentally. An extra aliquot of resin stock was prepared alongside the nHU samples that were identically processed that were used to eluate the immobilized proteins under harsh conditions, in order to experimentally quantify the Cbait by using densitometry of Coomassie stained SDS-PAGE that included a protein calibration series. For this, 50 μl bait-saturated resin aliquots were mixed with 200 μl 4x Laemmli Sample Buffer (120 mM Tris-HCl pH 7, 8% SDS, 100 mM DTT, 32% glycerol, 0.004% bromphenol blue, 1% β-mercaptoethanol), instead of cell extract. After 15 min incubation at 95 °C, these samples were analyzed by SDS-PAGE using protein calibration standard, made from recombinant MBP. Densitometry was carried out after Coomassie staining on raw Tif images by using Fiji ImageJ 1.53c and experimental bait concentration were determined by adjusting for molecular weight differences between MBP and MBP-POLE2 constructs.\nSamples were digested overnight at 37 °C."}, "POLE2 E520A": {"test_system": "POLE2 E520A", "assay": "Proximity labeling MS, POLE2 E520A", "details": "bait POLE2_E520A"}, "POLE2 Y311F": {"test_system": "POLE2 Y311F", "assay": "Proximity labeling MS, POLE2 Y311F", "details": "bait POLE2_Y311F"}, "POLE2 WT": {"test_system": "POLE2 WT", "assay": "Proximity labeling MS, MAC3-tagged POLE2 WT in Flp-In T-REx 293 cells", "type": "cell-based, human", "details": "bait POLE2_WT"}, "POLE2 S522A": {"test_system": "POLE2 S522A", "assay": "Proximity labeling MS, POLE2 S522A", "details": "bait POLE2_S522A"}},
  "data": [
    {"molecule": "B1", "values": [
      {"measurement": "pKapp_sign", "setting": "[1]", "result": 5.902}
    ]},
    {"molecule": "B2", "values": [
      {"measurement": "pKapp_sign", "setting": "[1]", "result": 5.194}
    ]},
    {"molecule": "B3", "values": [
      {"measurement": "AvgSpec", "setting": "POLE2 E520A; mean of 3 replicates", "result": 9.33},
      {"measurement": "Spec", "setting": "POLE2 E520A; replicate 1", "result": 14},
      {"measurement": "Spec", "setting": "POLE2 E520A; replicate 2", "result": 7},
      {"measurement": "Spec", "setting": "POLE2 E520A; replicate 3", "result": 7},
      {"measurement": "SpecSum", "setting": "POLE2 E520A; sum of 3 replicates", "result": 28},
      {"measurement": "FoldChange", "setting": "POLE2 E520A; versus control counts", "result": 7.7},
      {"measurement": "AvgSpec", "setting": "POLE2 Y311F; mean of 3 replicates", "result": 9.67},
      {"measurement": "Spec", "setting": "POLE2 Y311F; replicate 1", "result": 11},
      {"measurement": "Spec", "setting": "POLE2 Y311F; replicate 2", "result": 8},
      {"measurement": "Spec", "setting": "POLE2 Y311F; replicate 3", "result": 10},
      {"measurement": "SpecSum", "setting": "POLE2 Y311F; sum of 3 replicates", "result": 29},
      {"measurement": "FoldChange", "setting": "POLE2 Y311F; versus control counts", "result": 7.97},
      {"measurement": "AvgSpec", "setting": "POLE2 WT; mean of 6 replicates", "result": 7.33},
      {"measurement": "Spec", "setting": "POLE2 WT; replicate 1", "result": 9},
      {"measurement": "Spec", "setting": "POLE2 WT; replicate 2", "result": 11},
      {"measurement": "Spec", "setting": "POLE2 WT; replicate 3", "result": 13},
      {"measurement": "Spec", "setting": "POLE2 WT; replicate 4", "result": 4},
      {"measurement": "Spec", "setting": "POLE2 WT; replicate 5", "result": 2},
      {"measurement": "Spec", "setting": "POLE2 WT; replicate 6", "result": 5},
      {"measurement": "SpecSum", "setting": "POLE2 WT; sum of 6 replicates", "result": 44},
      {"measurement": "FoldChange", "setting": "POLE2 WT; versus control counts", "result": 6.05},
      {"measurement": "AvgSpec", "setting": "POLE2 S522A; mean of 3 replicates", "result": 14.33},
      {"measurement": "Spec", "setting": "POLE2 S522A; replicate 1", "result": 12},
      {"measurement": "Spec", "setting": "POLE2 S522A; replicate 2", "result": 14},
      {"measurement": "Spec", "setting": "POLE2 S522A; replicate 3", "result": 17},
      {"measurement": "SpecSum", "setting": "POLE2 S522A; sum of 3 replicates", "result": 43},
      {"measurement": "FoldChange", "setting": "POLE2 S522A; versus control counts", "result": 11.82}
    ]},
    {"molecule": "B4", "values": [
      {"measurement": "pKapp_sign", "setting": "[1]", "result": 4.276}
    ]}
  ]
}
